assay: soluble on expression in E. coli; label from the status in PepcDB or PDB records

Q: For “AIAETGGGAPLTKSSEAVEGDFVEDRLRGNEAFRRGNYEAAASYYSEALEKIRLAKTELPTQDRYPWSLEEVLIRCNRALVFLRLASAAALPNVGSNRFEEDACTAEHESEEATPCSLWQRAAEDASVALDLITDFEDEGESERVTELRVKALYRRMVANKGQNNFADAAKDAEALAKIRPEYRSEAELLAQRAAAESERAKQEALQKLKEVGNSFLSLFGVSIDNFQTKRNPDGTYSVSYCPKS”, which “soluble on expression in E. coli” value is on record?
A: soluble

Q: Which “soluble on expression in E. coli” value does the source give for “MGSDKIHHHHHHLRPDLEHYYLIDQYLENKLTGQELAAFEQQLMQDKAFANEVQEQRMLNNLILEAELKSVRSQIEKDLLNMQTPSFFRMHWQWISAGALCLLGSLFFMLPGKKDIQTVSLQKSAASHIEKENNPDIAPVENTTQKTATALNLPAKTDISDIVTRTQATDTAQAGSLVIAGTPVIVPVNTKTEPALETTAGEENKKTDCSLTKITSVITTENSCMNTETGSIHIDKISGGIAPYTYTLNNKKIKEKNVSALGAGIYEVKISDRNGCLSEQKISILEKNCTPAIQQGTKFNINPMLGETCSIAFDTDKKGSLTIYNRSGKIVYRVTNPSLDYIEWNGSDGTGALAEAGLYVYLIDYTDGTKVTGEVTITR” here?
A: not soluble

Q: For “MSDKKDFENNYEKTEDAWPIGVELVEHEISTGIWVTTQWQLTGFALNPTEETPDVCLLQLHKDERTDYRFNLSSQQPKLFLVMDNVESGEKPAIQLLTASQSVAAQYMDGDNLVLSNDMPLAVQAWMEAFIGRHGELLEVRRKKRKGAGRANGN”, which “soluble on expression in E. coli” value is on record?
A: not soluble

Q: Which “soluble on expression in E. coli” value does the source give for “MGSDKIHHHHHHMGIIATSFIPFRGLSVSNLSETNFSETSNANVDPQEIAKFEKMAATWWDPEGEFKPIHKLNPLRLNYIDQAVGGLFGKRVLDVGCGGGILSESMARLGARVDGLDMGAEPLDVAKLHALEMGVEINYIQDTAEHHRDSHQGQYDVVTCMEMLEHVPDPASVIKACSDMVKPGGYVFFSTINRNIRAYVETVIGAEYLLKMLPVGTHDHKKYIKPAELIGMADAVDLECVDATGITYNPLTEIFRYTKSLDVNYMIATVKQDD” here?
A: not soluble

Q: Which “soluble on expression in E. coli” value does the source give for “MKPSSPSRSKGHAKARRKTREELNQEARDRKRQKKRRGHAPGSRAAGGNNTSGSKGQNAPKDPRIGSKTPIPLGVTEKVTKQHKPKSEKPMLSPQAELELLETDERLDALLERLEAGETLSAEEQSWVDAKLDRIDELMQKLGLSYDDDEEEEEDEKQEDMMRLLRGN” here?
A: not soluble

Q: For “MITSPFERELKLLNEGELGIVQQLVESSNIGFIVDLELDGDYGWAVYKPELGEQPLWDFPPGLYKRERAAFVISEFLGWNIVPPTVIMHDAPAGVGSVQWFIENNGEHYFPLFDTRADLHPQFVRMAVFDLLCNNTDRKAGHVLLDGDHIWGIDHGLCFSVEPKLRTVIWDFAGCTIPDDLVTDVEQLLEDVPEELHQLLHPAEIDALQRRASRISRLPFLPQAKSHRQFPWPLVLEHHHHHH”, which “soluble on expression in E. coli” value is on record?
A: soluble

Q: Which “soluble on expression in E. coli” value does the source give for “MSLSKLKVSVFSKHLQFLQGEELAKATAAIGFDGVDLAVRKGGHVEPATVAKDLPALVAILRKNGLEVPMITTDIADTDTPFTEDLLKAASALGIRYYRFGAYKWSAEKPYAAQLEIMKPKLAKLAALNAKYQMCAMYHTHSGVGVVGASIWDLWYMMKDLDPKLMGMNYDVGHATIEGGLGGWIDSFKIAGNYVRGIAVKDFAWEKDPKGGQRSQWKPIGEGTVKFPQFYGMVAATDFAGPFQMHFEYPLGGANNGTRTLTVPKEEVHAAMKKDLDKTRAMLAQAGLEGHHHHHH” here?
A: not soluble

Q: With “MQQQVAPVPVIGVTADVLQMQANMKSLKSQLTNAPYGDSPLLKYNANPEIDGKSSPASTQRQLRFLAAKKGALSSSSDAQDSSFIIPPISKVMSDLSPAVTRSADVTKDLNYTSKEAPPSLARGLRNSTFNPNMSLTNRSVHESSALDKTIDSALDASMNGTSNRLGVRGSVRRSNLKQLDMSLLADSSRVGRESRVADPDALPRISESERRQDVVTSTPAVDPVQAVIQRHNDRNRDPPSLNLDTTCDEHTGLEPVSAATSSAASVVSTPSEETVNVNSAAGVKLTKPDYFSLPTINEMKNMIKNGRVVLEDGLTVGRSSYGSVYWPGRVELKDVALDEIVVFRHREVTVYPNEEEKAPEGQELNRPAEVTLERVWYTDKKTKKEVRDVVKLSEIGWREHLERQTIRMGAAFKDFRAETGSWVFRVDHFSKYGLADDDEPMDGSPPQQALQASSPLQVIDMNTSARDVNNQVQRKKVHKATDAHHQEIILERVPAPAALGDVVPIIRRVNRKGLGGGTLDDSREESCIGNMTTEFNESGHDSIIEEGQQPEKKPKLELLADLEYESSRFIRNLQELKVMPKANDPAHRFHGGGHSAKMIGYGKSKLIDIGIVKGRSSHVGWSETGCLVWSAQPRHNQVLFGTIDRTSDVNENTLISMLDVNVHVSETSRKGPSSQSNSVKSSLTSNFVTYSDSYSSMFAKYIDVAQAGGYDGHVSVWKLISALFPYERREGWSFERGEEIGEWLRTEAVKSVPDDRSADTSSNGVWNQLCLGDIDKAFQIAIDNNQPQLATMLQTSAVCPEATVHCFKAQLDNWKKCETLHLIPKETLKCYVLMSGLSHYEWDQDGKNHSINCLDGLNWIQALGLHVWYLRAWTGLEESYDAYQKDVNAGRAASNRGDLPGELIKLACESQHSVEVVLDCAAGENPNDYFLQWHVWSLLYSVGYRTMSKTSETRLHRNYSSQLEASSLSKYALFVLQHIDDDEERSTAVRSLLDRIARFTDNDMFDSISEQFDIPSEWIADAQFSIAKSVDDSTQLFELAVAAKNYLEICRLFVDDIAPTAVVAGDHDALKAACAMVRPFENQIPEWGATGMVYTDYCRLINLIENDAEEELLQDVLESLETRLHAPTISKNSLQKLSLQTIGRVLFEYRADKNTLPEWTKLLGHRQMFKIFRDRSSWGIERFTIEFD” as the sequence, how does the “soluble on expression in E. coli” value read?
A: not soluble

Q: For “TKDFNWNSTFNIAYNSSDVKYLGIDGTGEKIKRLTLDGANSRVGSVSVQNILGHPYGELVGYEYKRTSDGQVIFENGLPVHSDEVQVLGNGVYKVTGGWRNEFTYKNITLSFLIDFKAGAKMFSGTNLSLYSNGLHKNTLQGRGADGKGTMVGNGVMSDGKGGYVKNTVAVSAQDYWQAITSQNIAEEFVYNASFIKLRELSVGYTLPQAWLNKQTLIKGVTLSLVGRNLWTILKHTDNIDPESAYNNGNAQGLELNGYPATRNVGFNVNVKF”, which “soluble on expression in E. coli” value is on record?
A: not soluble

Q: Which “soluble on expression in E. coli” value does the source give for “MFHLVDFQVTIAEILIIIMRTFRIAIWNLDVIISSIVRQLFKPLTKKNYSELDDEEPMELDYP” here?
A: soluble

Q: Which “soluble on expression in E. coli” value does the source give for “MRAKKRKFLQKEELSKLLQSLDMSQIGFGWFVMLAAKTGMRYAEALAITPADFDWTAQTISINKTWDYKYNKGFAKTKTLSSVRTIKIDWQIVGQFKPLIKDFPEDEPIFVEKFGDGTYKRQFNSTINNFLAVKCNETGITQISFHALRHTHASVLLAEGVSIHTISARLGHADVGVTQETYAHVLDELQKKDDQKMLSVLMQIALEHHHHHH” here?
A: not soluble

Q: For “TAQFSWDTQLNFSQNKSKIIELLPGKPGMQYALGGSDALQVYAVAGGAYGEIWGTKYQRVEEGEFKGQLLLNESGLPQATSDKHKIGEQQPDFLLGWTNTFNYKNFTLSFLIDGRFGGDIFSFTNMNLQRSGIAECTAPGGKREDIVVAGVIKDGNGYKVNDQSVSLERYYKALATGRAGISEAYIYDATNIRLRNIALSYRFPSSMLKKTPFQQVKLGFTVNNVWMISSHLDGIDPESVYATSTNATGLENSSAPTSRSYLFNVTLGF”, which “soluble on expression in E. coli” value is on record?
A: not soluble

Q: With “GLVPRGSHMYAELSPGTKKVYTQVRYLDDYHWEIEGSTITGIHKKSNVKVVIDVAKNREEADSLAGKDVNGIHIVAIPDNGVFYIKNGSFVLTYRYLKATLADINDHIVWSGFKVVEDNGKLVQEDVYEYLGAALVNHIKNNALAGQDYIFWQFYKCEECGKYVDIENLEAHLREHGIKLHEKSEEHYEVFELNFREGKVFDKFGGEVPMDKFSSEAREFIKEVLS” as the sequence, how does the “soluble on expression in E. coli” value read?
A: soluble

Q: Which “soluble on expression in E. coli” value does the source give for “MENKTIQLFGNITGGPIELHSQTGSRRRRDTVENAGKSAWDTAGDVGKSVIDTVENAGAAVKNGASDLDEKLMGSG” here?
A: not soluble

Q: With “MAHHHHHHMRAQSDLSPSSVSELRSKLKGVRVEVGSLVSFRDEPAFEMVMRLNKRHNGNLVSAVLSKGNAACGLGGDASGSGEGIGEGRVMADRSRHVEELRMVFIPKAYGAFLEDEMQKWLDPFRGRGEANRTKRKRDEVDDNEVTDIDSDVDTDECDDADSFRSV” as the sequence, how does the “soluble on expression in E. coli” value read?
A: soluble

Q: Which “soluble on expression in E. coli” value does the source give for “STFEELNGDYSIERMDSVIKALEEVLRSALPQGCITVGVYEAAKSLNVDPDNVVLCILATDDDDVKDVALQIHFTLIQAFCCENDINILRVNNTRRLANILGGAGMHGSEQMDLHCILVTVPHASTWKNPALGKVNRFCRESRCMDQWVPIINLPER” here?
A: soluble

Q: With “MSLNPRIDYLKSLSTLAAEIYPDIRGVKKLRYNARFCLWGILMPDTLARIQDLLNQPSFHPVRQHYPRTLEKPLKPYVCVKWPPQERAQRLIEHFAFLEKRHAQLLPLIYRHQGWSLFQHELFSIQLCHGPEREGSLALVLLSQDHQPLFTLAFNISGRNKPVIHIGALQGPGPNVENRQEIIRQLTHQLHGLRPKALIMEVLLILARYWCVEKVYGVTNEGHVYQALRYIGSKRSSVRFQYSELWQEMGGEAINPYWHSLPTHPPRKAPLSLSKTKRRLYTKRYAWLTELEQSIQANLQPWDNEIHHEGHHHHHH” as the sequence, how does the “soluble on expression in E. coli” value read?
A: soluble

Q: For “MSNDLTQITQRSLDEQVIGNLNRLQEQGLEMPPGYSPQNALKSAFFELTNNSGGNLLQLAANNPETKTSISNALLDMVIQGLSPAKKQCYFIKYGNKVQLMRSYFGTMAVLDRVTGGADITPVVVREGDVFEIAMDGPDLVVAKHETAFENLDNDIKAAYVVIKLANGKEVTTVMTKKQIDKSWSKAKTKNVQNDFPEEMAKRTVINRAAKYLINTSNDNDLFVQAAKDTLENEFERKDVTPEREEQAAVLEEKLFSNNIKAVDQENENERITRVADVPEQPDIEQAKPIEKDNLTKVADQILEEPVQETLDVMAGYETNQKESEADVSTIEEDDYPF”, which “soluble on expression in E. coli” value is on record?
A: not soluble

Q: For “GMKPIKEIADQLELKDDILYPYGHYIAKIDHRFLKSLENHEDGKLILVTAVTPTPAGEGKTTTSIGLSMSLNRIGKKSIVTLREPSLGPTLGLKGGATGGGRSRVLPSDEINLHFTGDMHAVASAHNLLAAVLDSHIKHGNELKIDITRVFWKRTMDMNDRALRSIVIGLGGSANGFPREDSFIITAASEVMAILALSENMKDLKERLGKIIVALDADRKIVRISDLGIQGAMAVLLKDAINPNLVQTTEGTPALIHCGPFANIAHGTNSIIATKMAMKLSEYTVTEAGFGADLGAEKFIDFVSRVGGFYPNAAVLVATVRALKYHGGANLKNIHEENLEALKEGFKNLRVHVENLRKFNLPVVVALNRFSTDTEKEIAYVVKECEKLGVRVAVSEVFKKGSEGGVELAKAVAEAAKDVEPAYLYEMNDPVEKKIEILAKEIYRAGRVEFSDTAKNALKFIKKHGFDELPVIVAKTPKSISHDPSLRGAPEGYTFVVSDLFVSAGAGFVVALSGDINLMPGLPKKPNALNMDVDDSGNIVGVS”, which “soluble on expression in E. coli” value is on record?
A: soluble

Q: Which “soluble on expression in E. coli” value does the source give for “VRTHEVVLHRIEQDLAAGKLTVGGRLPAERALAEELGVGRSSVREAMRVLEAMGIVRTAVGSGPDAGAIVAADPAASIGAAIRLHMATRTLPIHDVVQTRTLLESWAVQEAAGQAPDLDFSAIDTLLDAMDDEDLSPEAFHRLDADLHVAMAGLAGNVLVEAMMVSLRDSIHGYVMQAVPLLDDWPAVATHLRCEHRGIVAALRDGHGAEAAGLVREHIEGFYGRFAPVRG” here?
A: not soluble

Q: For “MEPIWRNYPYPTYPGHHNFQFDPLLSDGSHTGVNQLGGVFVNGRPLADTVRAQIVEMSQHGTRPCDISRQLKVSHGCVSKILGRYYSTGSVRPGVIGGSKPKVATPRVVECIAGYKRANPTMFAWEIRQKLIEDQICGEENVPSVSSINRIVRNKSFMAQLAAPTSVTSSAARPSSATSHHQRSPPRGVQQHMQQSTSVQQLQQLQLTSAATVNSLMTPPAFAMPGTAYSINGLLGTLPQPSLLDDKFTNLSTQSADMSLVYSTGLVGEHDWTMRTPMVILPQNYCGQL”, which “soluble on expression in E. coli” value is on record?
A: not soluble
